Assay results from patent publication US9260754B2, “Connexin mutation detection for lymphatic variation and disease” (University of Pittsburgh—Of the Commonwealth System of …, priority 2010, dated 2016).
Where no end group is shown, it is not given here.

B1: P381S: Cx47 missense mutant P381S (1141C>T), C terminal, construct expressed in HeLa cells or LECs (protein, listed as Homo sapiens)
chain: MSWSFLTRLLEEIHNHSTFVGKVWLTVLVVFRIVLTAVGGEAIYSDEQAKFTCNTRQPGCDNVCYDAFAPLSHVRFWVFQIVVISTPSVMYLGYAVHRLARASEQERRRALRRRPGPRRAPRAHLPPPHAGWPEPADLGEEEPMLGLGEEEEEEETGAAEGAGEEAEEAGAEEACTKAVGADGKAAGTPGPTGQHDGRRRIQREGLMRVYVAQLVARAAFEVAFLVGQYLLYGFEVRPFFPCSRQPCPHVVDCFVSRPTEKTVFLLVMYVVSCLCLLLNLCEMAHLGLGSAQDAVRGRRGPPASAPAPAPRPPPCAFPAAAAGLACPPDYSLVVRAAERARAHDQNLANLALQALRDGAAAGDRDRDSSPCVGLPAASRGSPRAGAPASRTGSATSAGTVGEQGRPGTHERPGAKPRAGSEKGSASSRDGKTTVWI

Tests used:
[1] = test system: hTERTs (telomerase-transfected human dermal lymphatic endothelial cells); assay: Intercellular communication assay (parachute Calcein AM dye transfer) with gap junction inhibitors; type: cell-based; details: GRA 10 μM, Gap 27 500 μM, 40 min, versus control, p<0.05
Procedure: To characterize intercellular gap junction communication over time between seeded donor cells and an acceptor monolayer, LECs were loaded with 2.5 μM Calcein-AM (Invitrogen) in (PBS) for 30 min at 37° C. Excessive dye was removed by rinsing three times in PBS before dislodgment using 500 μl 0.25% Trypsin-EDTA. Detached cells were dispersed with a pipette and 10 μl cell suspensions was added to a confluent LEC monolayer in MCDB-131 supplemented with 25 mM HEPES. To ensure attachment of dye loaded suspended cells, the dish was incubated at 37° C. for 40 min prior to syringe filtration of the medium to remove floating cells that would interfere with subsequent imaging. The dish was thereafter mounted in a temperature controlled open chamber microincubator (Harvard Apparatus) on an inverted Olympus IX81 microscope. […] The Gap27 was handled similarly to GRA and a DMSO control was measured on the same day. Significance was assigned at p<0.05 and treatments were analyzed as independent samples using a Student's t-test. […]
Calcein AM allows cell permeable loading, and with a molecular weight of 662, is frequently used in gap junction communication studies. […] Replicate blinded experiments were performed on at least 2 separate days, and quantitation of dye spread was determined in an automated manner using Metamorph and standardized regions of interest with auto-thresholding. […]

HeLa cells [2] = assay: Cx47 gap junction plaque formation by immunofluorescent confocal microscopy in transfected HeLa cells; type: cell-based, human; details: near confluent transfected HeLa cells
Procedure: Human neonatal foreskin was collected anonymously as discarded tissue according to an IRB protocol. Samples were collected immediately after harvest in DMEM, then fixed in 2% paraformaldehyde for 2 hrs, then stored in 30% sucrose in 1×PBS overnight for cryosectioning, and sectioned in 6 μm slices at −30° C. Transfected (stable and transient) and untransfected HeLa cells were grown to near confluence in coverslip bottom dishes. All cells were rinsed with PBS and fixed with 2% paraformaldehyde. Subsequently, tissue and HeLa cells were processed similarly: following permeabilization with 0.1% Triton X, cells were blocked with 2% BSA. A human Cx47 antibody (ab) was obtained from the S. Scherer laboratory: polyclonal rabbit against amino acids 344-399 in the cytoplasmic C-terminal tail; we used human CNS tissue and positive oligodendrocyte staining as a positive control and primary antibody delete and rabbit IgG as negative controls (data not shown). Cx47 ab was diluted in 0.5% BSA in a 1:200 ratio, applied to cells and incubated at RT for one hour. Mouse monoclonal Proxl (Chemicon) was used as a lymphatic marker for the foreskin samples. Cells were incubated with the secondary abs (Donkey Anti-Rabbit Cy5 and Donkey Anti-Mouse Cy3; Invitrogen) for one hour at RT and washed; Draq5 was used as a nuclear marker. HeLa images were acquired with an inverted Olympus Fluoview 1000 Confocal Microscope 100× oil, 1.4 NA objective. Foreskin images were acquired on a Zeiss Meta LSM 510 inverted confocal microscope with 40× oil, 1.3 N.A. objective. LECs (primary human microvascular adult dermal lymphatics; Lonza) were grown in fibronectin coated coverslip bottom MatTeks dishes in EGM™-2 MV—Microvascular Endothelial Cell Medium-2 (Lonza Inc.) to approximately 80% confluence, and prepared similarly but a commercially available (AbCam) Cx47 ab, polyclonal rabbit against amino acids 41-70 in the human sequence was used along with Drag 5 nuclear marker and phalloidin to mark f-actin.
Immunofluorescence microscopy determines the presence or absence of Cx47 gap junction plaques when the constructs are transiently expressed in HeLa cells. Cx plaques reflect a physiologic accumulation of Cx channels in the cell membrane between cells (tens to thousands of channels); thus plaques are indicative of normal trafficking and gap junction formation at the cell membrane.
Immunofluorescence microscopy determines the presence or absence of Cx47 gap junction plaques when the constructs are transiently expressed in HeLa cells. A human Cx47 antibody was obtained: polyclonal rabbit against amino acids 344-399 in the cytoplasmic C-terminal tail (Orthmann-Murphy J L, et al. Mol Cell Neurosci 2007; 34:629-41); we used human CNS tissue and positive oligodendrocyte staining as a positive control and primary antibody delete as a negative control (data not shown). Cultured HeLa cells were routinely fixed and stained with the primary antibodies against Cx47, along with a nuclear marker, and transfected cells were identified by their EGFP signal. Plaques were imaged using an Olympus Fluoview 1000 confocal microscope, 100× oil objective.

HeLa cell pairs = assay: Dual whole cell patch clamp recording of coupling current in transfected HeLa cell pairs; type: cell-based, human
Procedure: Coupling currents were recorded using simultaneous double whole-cell patch clamp recordings from isolated pairs of cells that were in contact with one another (determined visually) as previously described. Briefly, the pipette solution consisted of (mM): 130 CsCl, 10 EGTA, 10 HEPES, 3 Mg-ATP, 2 Na-ATP, 0.5 CaCl2, pH 7.3. The culture was bathed in a solution consisting of (mM): 140 NaCl, 5 HEPES, 5 glucose, 4 KCl, 2 CsCl, 2 CaCl2, 2 pyruvate, 1 BaCl2, pH 7.3. Transfected HeLas undergo electrophysiologic analysis in a blinded manner. Pairs of cells were chosen for study only if both expressed the GFP marker indicative of successful transfections; both stable and transient transfectants were analyzed. Patch pipettes were fabricated from borosilicate glass, and coupling currents were amplified by Axopatch 200A amplifiers, filtered at 1 KHz, and digitized at 5 KHz for subsequent analysis using pClamp software (Axon Instruments/Molecular Devices; Sunnyvale, Calif.). All experiments were carried out at room temperature (22° C.). Coupling current was quantified by measuring the peak current recorded in the pair when the neighboring cell received a 100 mV step membrane potential change (in both positive and negative directions). Step changes in membrane potential were delivered to each cell in the pair in sequence and the average current recorded in the neighboring cell was determined and divided by 100 to generate coupling current expressed in pA/mV. Means±SEM were calculated and statistical significance using a one-way analysis of variance and Tukey's post-hoc test, p<0.05.
Coupling current is quantified by measuring the peak current recorded in the pair when the neighboring cell receives a 100 mV step membrane potential change (in both positive and negative directions). Step changes in membrane potential are delivered to each cell in the pair in sequence and the average current recorded in the neighboring cell determined and divided by 100 to generate coupling current expressed in pA/mV (FIG. 6C). Replicate measurements (n=3-6) are made on at least two different days. […] The untransfected HeLa cell pairs also show minimal channel function, as predicted.
Electrophysiologic characteristics of GJIC were measured between HeLa cell pairs transfected with the mutant constructs (as indicated by EGFP expression) by dual whole cell patch clamp recording. All experiments were carried out in a blinded manner. Coupling current is quantified by measuring the peak current recorded in the pair when the neighboring cell receives a 100 mV step membrane potential change (in both positive and negative directions). Step changes in membrane potential are delivered to each cell in the pair in sequence and the average current recorded in the neighboring cell determined and divided by 100 to generate coupling current expressed in pA/mV. Untransfected HeLa cells and cells transfected with empty vector (i.e., no hCx47) were used as additional controls.

[3] = test system: Adult human dermal lymphatic microvascular endothelial cells; assay: Lucifer yellow microinjection dye spread in lymphatic endothelial cells expressing mutant constructs; type: cell-based
Procedure: Adult human dermal lymphatic microvascular endothelial cells were cultured in EGM™-2 MV (both from Lonza). Cells were electroporated with 2 μg cDNA of the EGFP tagged mutant constructs and then selected with G418 as described above. Cells were microinjected using a combination (1:4 ratio) of 70 kd Texas Red dextran (Invitrogen) to mark injected cell for reference and Lucifer yellow, a known gap junction permeable dye (m.w. 443, −2 charge), to assess change in extent of spread (Abbaci M, et al. Advantages and limitations of commonly used methods to assay the molecular permeability of gap junctional intercellular communication. Biotechniques 2008; 45:33-52, 6-62). All cells were injected using constant conditions and cells were scored for dye spread in tiers from reference cell, using constant exposure time and thresholding, and were imaged using a Nikon TE2000 with temperature controlled motorized stage and Qlmaging Retiga CCD camera. Images were obtained using differential interference contrast (DIC) and standard filters for EGFP (identify expression of mutation), DAPI (for Lucifer yellow) and dsRed (for dextran) preinjection, immediately post-injection and 2 min after injection. Results were calculated as mean SEM and statistical significance was determined in comparison to WT-hCx47-EGFP expressing cells using a Mann-Whitney Test.

HeLa cells [4] = assay: Wound assay (proliferation/migration) in confluent transfected HeLa cells; type: cell-based, human; details: fraction of original wound in HeLa cell monolayer after 24 hrs; mean ± SEM
Procedure: The wound assay, a measure of proliferation/migration, was performed using differential interference contrast time lapse of over 24 hrs using confluent transfected HeLa cells. Analysis was done using TScratch (Geback T, et al. TScratch: a novel and simple software tool for automated analysis of monolayer wound healing assays. Biotechniques 2009; 46:265-74), mean±SEM of at least 10 positions along wound; the scrape width was normalized to the first image for each position. In all cases a two tailed student's T test was applied with p<0.05 considered significant.

| Molecule | GJIC by dye transfer in response to gap junction inhibitors [1] | Cx47 plaque formation (in words) (HeLa cells [2]) | electrical coupling (HeLa cell pairs; Table 6 (Example 4), HeLa cell pairs, 100 mV step, mean ± SEM) [pA/mV] | electrical coupling / functional channels in HeLa cell pairs (in words) (HeLa cell pairs; transfected HeLa cell pairs, voltage step protocol −100 to +100 mV) | LEC spread ([3]; Dye spread to tiers of LECs after 2 min, Lucifer yellow microinjection, mean ± SEM) [tiers] | dye transfer of Lucifer yellow after microinjection compared to WT-hCx47-EGFP expressing LECs (in words) ([3]; LECs expressing the mutations) | wound assay (HeLa cells [4]) |
| --- | --- | --- | --- | --- | --- | --- | --- |
| CC1(C)[C@@H](O)CC[C@]2(C)[C@H]3C(=O)C=C4[C@@H]5C[C@@](C)(C(=O)O)CC[C@]5(C)CC[C@@]4(C)[C@]3(C)CC[C@@H]12 [GRA, 18α-glycyrrhetinic acid] | significantly reduced | – | – | – | – | – | – |
| SRPTEKTIFII [Gap 27, Synthetic connexin-mimetic peptide targeted to extracellular loop 2 of Cx43] | significantly reduced | – | – | – | – | – | – |
| B1 | – | Cx47 intercellular plaques | 48.2 | well coupled | 2.26 | significantly enhanced dye transfer | 0.70 |
